These results are taken from patent publication US20240132579A1 (DOTBIO PTE, published 2024).

Test [1] concerns the target T1, Biotinylated human VEGF-165 (Acro Biosystem) (human, UniProt P15692 207-395, biotinylated (site not stated)).
T1 construct: Bought protein; also called human VEGFA
The experiment in a line: BLI, biotinylated VEGF on streptavidin tips, 1:1 global fit. The procedure:
(§1) Binding characterization was performed using BLI (Satorius) at RT with a 1000 rpm flow-rate. Biotinylated human VEGF-165 (Acro Biosystem) was immobilized onto Streptavidin-coated tips at a concentration of 3 μg/mL for 60 sec in BLI buffer (0.1% BSA and 0.01% Tween-20 in PBS). After a 30 sec baseline, anti-VEGFA DotBodies were associated at 8 different concentrations, including a blank reference, in BLI buffer for 60 sec, followed by a 400 sec dissociation in BLI buffer. The background buffer signal was subtracted using the 0 nM concentration reference, and the kinetics of binding were calculated using a global fit following a 1:1 binding model, using BLI Analysis Software. The bivalent molecule 16A2.1×2 was also characterized as described here, but with a 600 sec dissociation. To characterize the binding of all the clones against murine VEGFA, the same procedure was employed, but the immobilized target was replaced with biotinylated murine VEGF-164 (Acro Biosystem).

Test [2] addresses T2, biotinylated murine VEGF-164 (Acro Biosystem) (mouse, UniProt Q00731-2 27-190, biotinylated (site not stated)).
T2 construct: also called Mouse VEGF164; murine VEGFA
T2 sequence (looked up): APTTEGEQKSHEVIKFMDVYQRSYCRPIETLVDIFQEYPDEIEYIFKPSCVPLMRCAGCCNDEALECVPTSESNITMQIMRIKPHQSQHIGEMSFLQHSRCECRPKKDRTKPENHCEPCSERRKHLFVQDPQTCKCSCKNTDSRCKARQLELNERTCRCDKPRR
The test is described as above. The procedure: as §1

In test [3] the target is T3, Human VEGF-121 (Acro Biosystems) (human, UniProt P15692 207-395).
T3 construct: Bought protein; also called human VEGFA
T3 sequence: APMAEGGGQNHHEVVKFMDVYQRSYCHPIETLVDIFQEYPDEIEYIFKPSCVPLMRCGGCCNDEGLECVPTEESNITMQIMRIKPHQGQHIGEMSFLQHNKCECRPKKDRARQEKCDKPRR
The experiment in a line: competitive ELISA: inhibition of 0.5 nM human VEGF-121 binding to coated VEGFR1 (FIG. 5). The procedure:
(§2) To perform the competitive ELISA, the VEGFR1 was immobilized at a concentration of 2 μg/mL onto a Maxisorp 96-well plate (Thermo Scientific) overnight at 4° C., washed three times with PBS and blocked for 1 h at RT with ELISA Block Buffer (EBB: 0.2% BSA in PBST). […] The samples were incubated for 2 h at RT, and 50 μL transferred onto the VEGFR1-coated plate. After 2 h incubation, the plate was washed 3 times with PBST. 50 μL of streptavidin-HRP conjugate (Thermo Scientific) was added at a 1:5,000 dilution in EBB, and incubated for 1 h at RT. The plate was washed 5 times with PBST, and developed with 50 μL 3,3′,5,5′-Tetramethylbenzidine (TMB) substrate (GeneTex). After 5-15 min, the reactions were stopped by adding 50 μL of 2M H₂SO₄, and signal was measured at an absorbance of 450 nm.
For orientation: In an ELISA, binding on a coated surface is turned into a signal by an enzyme label.

In test [4] the target is T3, Human VEGF-121 (Acro Biosystems). The experiment in a line: competitive ELISA: inhibition of 0.5 nM human VEGF-121 binding to coated VEGFR1 (FIG. 4). How it is done: as §2
A further test addresses VEGFA (UniProt P15692-4 27-191, limits assumed). As to the kind of experiment: method not stated.

B1: anti-VEGFA DotBody 16C2.1 (VHH)
VHH: EVQLVESGGGLVQPGGSLRLSCAISGFSLAATDIDWVRQAPGKGLEWVARIFSPSDFTDYADSVKGRFTISADTSKNTVYLQMNSLRAEDTAVYYCGRPDTYAYNIFLDTPTYNALHYRGQGTLVTVSS
notes: Humanized, stabilized autonomous VH domain (single domain antibody, 'DotBody') derived from the trastuzumab VH
For the molecule B1, the values for the Kd (in test [1]; in test [2]; in the test with VEGFA) were 3 nM, 14.6 nM and less than 5 nM, respectively. Further, the koff was 0.00032 s⁻¹ in test [1] and 0.00173 s⁻¹ in test [2]. In addition, the kon in test [1] worked out at 106000 M⁻¹ s⁻¹; in test [2], 118000 M⁻¹ s⁻¹. Moreover, the concentration for half-maximal inhibition (IC50) was 1.8 nM in test [3] and 2.3 nM in test [4].

B2: anti-VEGFA DotBody 21A5.1 (VHH)
VHH: EVQLVESGGGLVQPGGSLRLSCAISGFSLVETDIDWVRQAPGKGLEWVARIFLPSGSTYYADSVKGRFTISADTSKNTVYLQMNSLRAEDTAVYYCGSPDTYAYNIFLDTPAYKGLSYRGQGTLVTVSS
In test [1], B2 displayed a Kd of 3.37 nM, a koff of 0.000363 s⁻¹ and a kon of 105000 M⁻¹ s⁻¹. For the same molecule, in test [2], the equilibrium dissociation constant (Kd) came to 15.3 nM, the koff came out at 0.00128 s⁻¹ and the kon worked out at 83600 M⁻¹ s⁻¹. This molecule came in with an IC50 in test [3] of 12.8 nM.

By Kd is commonly meant the concentration at which binding is half-saturated. A lower Kd goes with higher affinity. By koff is commonly meant the first-order rate constant of dissociation. High values mean a short-lived complex, low ones a long-lived complex. Broadly, the kon is the second-order rate constant of association. High values mean fast association, low ones slow association. A word on the IC50: it is the concentration needed to halve the response being measured. A higher IC50 goes with weaker potency in that assay.
